According to PMC12177876, “Nanoflow Size Exclusion Chromatography–Native Mass Spectrometry of Intact Proteoforms and Protein Complexes” (Analytical Chemistry, 2025):

Target: the molecule itself
Test: SEC + native MS; nanoflow SEC-nMS of reference proteins: 50 nL of 1 mg mL^-1 protein injected, 200 um ID capillary SEC column, 0.5 uL min^-1, eluted with 200 mM AmAc; isCID varies by protein

B1: alcohol dehydrogenase (enzyme, UniProt P00330 1-348, looked up)
chain: MSIPETQKGVIFYESHGKLEYKDIPVPKPKANELLINVKYSGVCHTDLHAWHGDWPLPVKLPLVGGHEGAGVVVGMGENVKGWKIGDYAGIKWLNGSCMACEYCELGNESNCPHADLSGYTHDGSFQQYATADAVQAAHIPQGTDLAQVAPILCAGITVYKALKSANLMAGHWVAISGAAGGLGSLAVQYAKAMGYRVLGIDGGEGKEELFRSIGGEVFIDFTKEKDIVGAVLKATDGGAHGVINVSVSEAAIEASTRYVRANGTTVLVGMPAGAKCCSDVFNQVVKSISIVGSYVGNRADTREALDFFARGLVKSPIKVVGLSTLPEIYEKMEKGQIVGRYVVDTSK
notes: The tetramer mass fits S. cerevisiae ADH1; this is surmised, the source is in the supplement; also called ADH
With B1 the “stoichiometry N” value was 4.

B2: catalase (enzyme, UniProt P00432 1-527, looked up)
chain: MADNRDPASDQMKHWKEQRAAQKPDVLTTGGGNPVGDKLNSLTVGPRGPLLVQDVVFTDEMAHFDRERIPERVVHAKGAGAFGYFEVTHDITRYSKAKVFEHIGKRTPIAVRFSTVAGESGSADTVRDPRGFAVKFYTEDGNWDLVGNNTPIFFIRDALLFPSFIHSQKRNPQTHLKDPDMVWDFWSLRPESLHQVSFLFSDRGIPDGHRHMNGYGSHTFKLVNANGEAVYCKFHYKTDQGIKNLSVEDAARLAHEDPDYGLRDLFNAIATGNYPSWTLYIQVMTFSEAEIFPFNPFDLTKVWPHGDYPLIPVGKLVLNRNPVNYFAEVEQLAFDPSNMPPGIEPSPDKMLQGRLFAYPDTHRHRLGPNYLQIPVNCPYRARVANYQRDGPMCMMDNQGGAPNYYPNSFSAPEHQPSALEHRTHFSGDVQRFNSANDDNVTQVRTFYLKVLNEEQRKRLCENIAGHLKDAQLFIQKKAVKNFSDVHPEYGSRIQALLDKYNEEKPKNAVHTYVQHGSHLSAREKANL
notes: Bovine liver catalase is surmised; the source is in the supplement
With B2 the “stoichiometry N” value was 4.
